Reference: publication PMC10775387 (Research Square, 2023)

Biological target: T1, EBOV GP1,2 stalk–MPER epitope peptide (aa 626–640) (Ebola virus (EBOV), UniProt Q05320)
T1 chain: IIHDFVDKTLPDQGD
Assay: crystal structure
Conditions: both partners purified

B1: 3A6 Fab (Fab, V domains shown)
VH: EVQLLESGGGLVKPGGSLRLSCAASGFTFNEYMMNWVRQPPGKGLEWVSSISGTSTYINYADSVKGRFTISRDNAKNSLYLQMNSLRSDDTAMYYCARGSTGGYWGQGTLITVSS
VL: DIVMTQTPLSSAVTLGQPASISCRSSQRLVHSDGNTYLSWLHQRPGQPPRLLIYKVSLRFSGVPDRFSGSGAGTDFTLKISRVEAEDVGIYYCMQATQFPLTFGGGTKVEIK
binding result: binds
